Laboratory results as given in US10087225B2, “Formulation of MK2 inhibitor peptides” (MOERAE MATRIX, INC., priority 2015, dated 2018).

Experiments:
Assay in all cases: Kinase Profiling Assay
Type in all cases: biochemical
Conditions in all cases: for % activity: 100 μM
SRPK2(h) = SRPK2(h) (Homo sapiens, UniProt P78362)
ULK3(h) = molecular target: T1, ULK3(h) (Homo sapiens, UniProt Q6PHR2)
T1 sequence (Q6PHR2 1-472): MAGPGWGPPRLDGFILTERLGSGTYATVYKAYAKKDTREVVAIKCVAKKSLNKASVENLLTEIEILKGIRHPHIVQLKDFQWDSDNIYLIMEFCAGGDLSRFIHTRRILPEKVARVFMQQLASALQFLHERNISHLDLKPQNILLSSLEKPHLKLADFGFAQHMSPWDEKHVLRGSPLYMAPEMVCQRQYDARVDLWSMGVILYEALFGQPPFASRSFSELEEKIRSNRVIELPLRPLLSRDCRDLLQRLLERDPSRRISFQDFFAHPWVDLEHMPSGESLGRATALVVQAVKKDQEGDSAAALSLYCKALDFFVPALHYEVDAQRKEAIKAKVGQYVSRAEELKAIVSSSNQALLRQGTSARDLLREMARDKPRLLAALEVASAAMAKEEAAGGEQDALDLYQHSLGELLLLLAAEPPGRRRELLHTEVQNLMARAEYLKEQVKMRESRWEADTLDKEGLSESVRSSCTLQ

ZAP-70(h) = molecular target: T2, ZAP-70(h) (Homo sapiens, UniProt P43403)
T2 sequence (P43403 1-619): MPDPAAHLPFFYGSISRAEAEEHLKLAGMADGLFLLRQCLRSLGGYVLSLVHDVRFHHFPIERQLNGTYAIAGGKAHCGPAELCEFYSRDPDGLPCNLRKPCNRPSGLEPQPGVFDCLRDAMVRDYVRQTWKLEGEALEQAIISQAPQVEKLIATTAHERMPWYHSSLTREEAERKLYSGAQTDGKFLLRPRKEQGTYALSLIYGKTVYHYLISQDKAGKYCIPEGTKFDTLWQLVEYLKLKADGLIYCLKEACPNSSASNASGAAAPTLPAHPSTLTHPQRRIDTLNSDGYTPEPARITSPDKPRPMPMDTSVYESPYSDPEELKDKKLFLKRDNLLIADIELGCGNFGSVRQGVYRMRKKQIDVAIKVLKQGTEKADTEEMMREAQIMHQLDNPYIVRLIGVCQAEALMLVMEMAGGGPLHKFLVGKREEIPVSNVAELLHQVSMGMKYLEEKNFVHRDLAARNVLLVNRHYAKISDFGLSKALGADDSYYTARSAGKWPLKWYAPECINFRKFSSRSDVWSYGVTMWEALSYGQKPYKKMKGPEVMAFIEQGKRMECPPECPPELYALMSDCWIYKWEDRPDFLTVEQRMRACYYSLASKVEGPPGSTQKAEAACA

ARK5(h) = molecular target: T3, ARK5(h) (Homo sapiens, UniProt O60285)
T3 sequence (O60285 1-661): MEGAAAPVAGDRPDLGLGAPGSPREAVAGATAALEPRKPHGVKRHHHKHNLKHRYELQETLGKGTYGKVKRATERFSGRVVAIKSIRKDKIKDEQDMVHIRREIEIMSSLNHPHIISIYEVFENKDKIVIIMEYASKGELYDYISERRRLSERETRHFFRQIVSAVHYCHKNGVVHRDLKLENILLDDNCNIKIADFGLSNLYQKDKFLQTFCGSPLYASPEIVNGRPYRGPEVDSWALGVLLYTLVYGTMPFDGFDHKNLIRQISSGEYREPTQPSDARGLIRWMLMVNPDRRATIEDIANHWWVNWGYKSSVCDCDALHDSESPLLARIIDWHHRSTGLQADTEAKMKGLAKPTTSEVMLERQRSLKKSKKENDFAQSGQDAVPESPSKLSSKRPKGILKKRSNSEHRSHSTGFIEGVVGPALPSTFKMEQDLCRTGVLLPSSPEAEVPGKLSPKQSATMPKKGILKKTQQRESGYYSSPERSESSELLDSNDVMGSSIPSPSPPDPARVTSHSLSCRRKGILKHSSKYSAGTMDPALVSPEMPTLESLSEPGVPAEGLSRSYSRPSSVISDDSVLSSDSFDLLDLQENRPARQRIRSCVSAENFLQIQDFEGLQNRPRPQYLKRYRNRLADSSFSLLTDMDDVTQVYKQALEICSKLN

ErbB4(h) = ErbB4(h) (Homo sapiens, UniProt Q15303)
Sequence of ErbB4(h) (Q15303 26-1308): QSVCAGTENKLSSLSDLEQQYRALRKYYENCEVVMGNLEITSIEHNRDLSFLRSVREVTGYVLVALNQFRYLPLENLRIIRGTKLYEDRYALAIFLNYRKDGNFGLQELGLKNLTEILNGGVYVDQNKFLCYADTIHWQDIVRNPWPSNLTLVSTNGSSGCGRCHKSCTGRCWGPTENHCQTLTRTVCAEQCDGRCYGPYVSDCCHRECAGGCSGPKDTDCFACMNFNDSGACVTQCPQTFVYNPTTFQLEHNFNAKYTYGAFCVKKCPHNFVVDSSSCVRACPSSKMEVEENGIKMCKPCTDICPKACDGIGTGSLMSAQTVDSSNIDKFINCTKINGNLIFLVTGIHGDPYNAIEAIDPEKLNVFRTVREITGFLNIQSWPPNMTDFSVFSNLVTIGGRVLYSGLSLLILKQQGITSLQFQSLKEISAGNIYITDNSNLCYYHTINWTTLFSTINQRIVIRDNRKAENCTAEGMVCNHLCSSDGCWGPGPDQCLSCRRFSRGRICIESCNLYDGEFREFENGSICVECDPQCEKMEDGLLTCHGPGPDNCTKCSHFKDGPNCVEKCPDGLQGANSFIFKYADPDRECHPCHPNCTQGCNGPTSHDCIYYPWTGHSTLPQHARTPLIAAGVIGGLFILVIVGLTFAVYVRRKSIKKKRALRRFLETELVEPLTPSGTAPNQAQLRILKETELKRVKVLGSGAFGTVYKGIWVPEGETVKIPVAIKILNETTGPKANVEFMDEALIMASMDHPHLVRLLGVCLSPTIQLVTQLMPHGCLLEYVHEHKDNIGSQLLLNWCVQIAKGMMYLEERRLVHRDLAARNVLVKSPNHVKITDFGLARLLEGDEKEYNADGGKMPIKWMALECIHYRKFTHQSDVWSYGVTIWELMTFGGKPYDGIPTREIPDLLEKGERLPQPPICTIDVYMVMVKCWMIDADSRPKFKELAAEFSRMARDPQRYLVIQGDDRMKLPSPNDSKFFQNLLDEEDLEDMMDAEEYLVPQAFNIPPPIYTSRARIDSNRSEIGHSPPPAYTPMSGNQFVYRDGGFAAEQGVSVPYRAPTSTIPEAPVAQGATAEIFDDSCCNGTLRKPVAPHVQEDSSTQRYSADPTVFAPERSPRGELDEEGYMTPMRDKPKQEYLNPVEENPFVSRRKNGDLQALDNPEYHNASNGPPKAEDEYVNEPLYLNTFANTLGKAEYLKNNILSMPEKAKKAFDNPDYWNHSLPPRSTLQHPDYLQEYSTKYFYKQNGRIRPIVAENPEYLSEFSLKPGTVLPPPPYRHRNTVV

PRK2(h) = PRK2(h) (Homo sapiens, UniProt Q16513)
Sequence of PRK2(h) (Q16513 whole entry): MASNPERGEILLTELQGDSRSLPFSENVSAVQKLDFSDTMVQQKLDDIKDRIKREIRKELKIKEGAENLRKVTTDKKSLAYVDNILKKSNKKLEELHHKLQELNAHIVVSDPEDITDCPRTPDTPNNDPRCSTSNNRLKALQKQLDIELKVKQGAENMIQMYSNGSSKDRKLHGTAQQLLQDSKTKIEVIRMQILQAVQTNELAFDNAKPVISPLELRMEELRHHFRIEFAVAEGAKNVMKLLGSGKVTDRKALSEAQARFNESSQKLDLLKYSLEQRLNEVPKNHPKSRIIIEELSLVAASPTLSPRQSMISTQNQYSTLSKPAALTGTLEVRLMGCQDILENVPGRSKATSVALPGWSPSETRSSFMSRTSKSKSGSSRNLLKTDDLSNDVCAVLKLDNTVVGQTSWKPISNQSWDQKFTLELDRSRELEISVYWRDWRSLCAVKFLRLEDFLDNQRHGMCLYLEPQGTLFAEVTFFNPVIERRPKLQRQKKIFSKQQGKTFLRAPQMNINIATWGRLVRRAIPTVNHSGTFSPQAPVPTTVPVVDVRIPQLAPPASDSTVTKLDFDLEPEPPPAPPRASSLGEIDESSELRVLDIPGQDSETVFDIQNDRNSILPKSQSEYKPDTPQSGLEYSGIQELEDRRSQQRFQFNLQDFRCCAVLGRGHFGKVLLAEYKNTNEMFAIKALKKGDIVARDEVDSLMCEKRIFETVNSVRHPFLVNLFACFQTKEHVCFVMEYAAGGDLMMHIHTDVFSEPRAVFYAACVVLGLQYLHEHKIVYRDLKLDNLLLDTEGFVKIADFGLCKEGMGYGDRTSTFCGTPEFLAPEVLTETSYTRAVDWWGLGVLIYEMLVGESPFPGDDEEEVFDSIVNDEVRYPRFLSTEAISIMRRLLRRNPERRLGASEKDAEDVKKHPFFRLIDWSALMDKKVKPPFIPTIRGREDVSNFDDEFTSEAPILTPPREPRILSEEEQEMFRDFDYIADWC

WNK2(h) = WNK2(h) (Homo sapiens, UniProt Q9Y3S1)
Sequence of WNK2(h) (Q9Y3S1 whole entry): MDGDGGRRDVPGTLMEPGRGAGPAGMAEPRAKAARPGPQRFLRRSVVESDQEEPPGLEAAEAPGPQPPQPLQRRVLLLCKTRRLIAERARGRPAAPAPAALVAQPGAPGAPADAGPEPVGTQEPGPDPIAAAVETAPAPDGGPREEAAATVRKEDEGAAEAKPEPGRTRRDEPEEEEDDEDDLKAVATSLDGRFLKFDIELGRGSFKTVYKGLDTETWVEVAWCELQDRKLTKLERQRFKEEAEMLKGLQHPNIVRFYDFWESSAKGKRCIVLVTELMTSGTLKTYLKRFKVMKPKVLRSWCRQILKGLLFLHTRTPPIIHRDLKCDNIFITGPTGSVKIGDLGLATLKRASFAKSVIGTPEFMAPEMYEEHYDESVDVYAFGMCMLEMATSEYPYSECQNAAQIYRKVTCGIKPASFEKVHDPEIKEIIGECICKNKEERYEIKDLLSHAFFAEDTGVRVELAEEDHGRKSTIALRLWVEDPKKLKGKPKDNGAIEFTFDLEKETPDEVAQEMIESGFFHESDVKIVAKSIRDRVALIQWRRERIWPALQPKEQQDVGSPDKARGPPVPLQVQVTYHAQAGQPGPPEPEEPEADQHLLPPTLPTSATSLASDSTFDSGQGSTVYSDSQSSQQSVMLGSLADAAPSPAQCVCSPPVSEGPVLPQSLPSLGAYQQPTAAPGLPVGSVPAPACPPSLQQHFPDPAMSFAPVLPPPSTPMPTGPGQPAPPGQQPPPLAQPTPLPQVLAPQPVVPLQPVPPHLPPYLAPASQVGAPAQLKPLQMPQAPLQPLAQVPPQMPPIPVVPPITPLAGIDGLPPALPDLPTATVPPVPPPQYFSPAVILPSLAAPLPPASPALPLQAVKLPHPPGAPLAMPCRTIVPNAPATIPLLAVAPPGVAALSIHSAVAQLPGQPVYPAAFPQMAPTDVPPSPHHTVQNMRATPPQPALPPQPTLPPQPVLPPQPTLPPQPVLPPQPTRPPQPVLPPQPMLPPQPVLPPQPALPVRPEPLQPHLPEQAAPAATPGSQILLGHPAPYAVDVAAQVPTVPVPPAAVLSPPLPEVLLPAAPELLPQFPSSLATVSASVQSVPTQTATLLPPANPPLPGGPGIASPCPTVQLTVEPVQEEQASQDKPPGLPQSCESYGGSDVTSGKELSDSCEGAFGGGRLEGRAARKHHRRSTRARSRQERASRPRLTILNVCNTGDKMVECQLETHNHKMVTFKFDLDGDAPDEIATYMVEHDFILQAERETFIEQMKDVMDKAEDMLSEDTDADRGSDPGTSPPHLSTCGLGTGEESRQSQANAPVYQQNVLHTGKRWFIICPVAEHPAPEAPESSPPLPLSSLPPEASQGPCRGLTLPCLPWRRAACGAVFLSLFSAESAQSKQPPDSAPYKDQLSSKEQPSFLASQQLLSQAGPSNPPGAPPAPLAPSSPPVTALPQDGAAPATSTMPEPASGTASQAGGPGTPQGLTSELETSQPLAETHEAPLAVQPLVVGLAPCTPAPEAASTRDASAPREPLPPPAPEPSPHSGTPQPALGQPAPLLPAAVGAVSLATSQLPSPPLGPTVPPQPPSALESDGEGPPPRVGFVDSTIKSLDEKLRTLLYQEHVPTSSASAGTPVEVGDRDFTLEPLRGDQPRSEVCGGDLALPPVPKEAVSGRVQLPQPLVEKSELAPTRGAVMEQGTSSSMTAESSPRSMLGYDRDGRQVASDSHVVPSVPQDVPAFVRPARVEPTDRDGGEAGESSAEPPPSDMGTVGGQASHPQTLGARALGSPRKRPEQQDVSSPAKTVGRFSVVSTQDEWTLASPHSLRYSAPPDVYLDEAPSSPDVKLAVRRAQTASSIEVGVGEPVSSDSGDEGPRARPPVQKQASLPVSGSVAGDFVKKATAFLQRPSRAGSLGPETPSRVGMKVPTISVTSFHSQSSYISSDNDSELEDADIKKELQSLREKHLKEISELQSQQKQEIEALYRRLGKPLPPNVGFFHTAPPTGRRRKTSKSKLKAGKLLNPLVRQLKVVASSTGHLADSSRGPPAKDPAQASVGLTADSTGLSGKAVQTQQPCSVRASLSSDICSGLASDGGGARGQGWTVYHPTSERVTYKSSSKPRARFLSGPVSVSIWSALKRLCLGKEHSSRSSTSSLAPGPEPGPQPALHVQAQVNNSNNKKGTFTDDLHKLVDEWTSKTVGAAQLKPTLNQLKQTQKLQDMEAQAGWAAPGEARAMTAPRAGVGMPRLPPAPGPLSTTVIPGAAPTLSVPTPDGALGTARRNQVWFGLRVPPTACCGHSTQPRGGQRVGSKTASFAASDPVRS

Met(Y1248H)(h) = Met(Y1248H)(h) (Homo sapiens, UniProt P08581, Y1230H)
SGK3(h) = molecular target: T4, SGK3(h) (Homo sapiens, UniProt Q96BR1)
T4 sequence (Q96BR1 1-496): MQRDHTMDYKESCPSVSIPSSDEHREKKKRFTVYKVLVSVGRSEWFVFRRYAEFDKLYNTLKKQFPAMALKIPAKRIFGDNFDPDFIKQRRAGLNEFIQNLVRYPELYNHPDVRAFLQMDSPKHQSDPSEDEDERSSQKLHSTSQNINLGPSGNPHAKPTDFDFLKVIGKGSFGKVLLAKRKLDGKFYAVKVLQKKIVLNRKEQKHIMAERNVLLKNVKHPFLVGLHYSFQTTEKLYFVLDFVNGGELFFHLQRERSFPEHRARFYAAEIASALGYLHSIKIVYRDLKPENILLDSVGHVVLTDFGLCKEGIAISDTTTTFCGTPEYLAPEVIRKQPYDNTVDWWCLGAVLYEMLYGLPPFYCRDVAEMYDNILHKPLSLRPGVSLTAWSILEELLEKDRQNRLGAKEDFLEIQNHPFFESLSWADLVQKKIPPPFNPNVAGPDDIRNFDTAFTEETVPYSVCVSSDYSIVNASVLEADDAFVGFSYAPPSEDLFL

CHK2(R145W)(h) = CHK2(R145W)(h) (Homo sapiens, UniProt O96017, R145W)
Sequence of CHK2(R145W)(h) (O96017 whole entry R145W): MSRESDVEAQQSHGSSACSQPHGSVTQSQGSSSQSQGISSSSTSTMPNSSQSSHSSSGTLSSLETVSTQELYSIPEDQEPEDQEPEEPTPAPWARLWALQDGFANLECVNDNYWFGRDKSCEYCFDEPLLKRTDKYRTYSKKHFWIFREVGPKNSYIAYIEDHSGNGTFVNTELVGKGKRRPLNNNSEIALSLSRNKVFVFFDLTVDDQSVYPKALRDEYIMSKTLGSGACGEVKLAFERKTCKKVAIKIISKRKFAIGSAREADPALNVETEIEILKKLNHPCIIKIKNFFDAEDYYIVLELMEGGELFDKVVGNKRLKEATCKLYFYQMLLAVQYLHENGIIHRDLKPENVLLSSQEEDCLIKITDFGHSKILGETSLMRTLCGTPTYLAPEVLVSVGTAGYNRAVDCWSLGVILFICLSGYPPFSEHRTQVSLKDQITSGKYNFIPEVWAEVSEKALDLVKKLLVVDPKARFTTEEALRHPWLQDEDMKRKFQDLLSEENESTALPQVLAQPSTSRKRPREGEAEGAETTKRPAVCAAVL

Row | Substance | activity at 100 µM (SRPK2(h)) | activity at 100 µM (ULK3(h)) | activity at 100 µM (ZAP-70(h)) | activity at 100 µM (ARK5(h)) | activity at 100 µM (ErbB4(h)) | activity at 100 µM (PRK2(h)) | activity at 100 µM (WNK2(h)) | activity at 100 µM (Met(Y1248H)(h)) | activity at 100 µM (SGK3(h)) | activity at 100 µM (CHK2(R145W)(h)) | % activity (SRPK2(h)) | % activity (ULK3(h)) | % activity (ZAP-70(h)) | % activity (ARK5(h)) | % activity (ErbB4(h)) | % activity (PRK2(h)) | % activity (WNK2(h)) | % activity (Met(Y1248H)(h)) | % activity (SGK3(h)) | % activity (CHK2(R145W)(h))
1 | H-YARAAARQARAKALARQLGVAA-OH [MMI-0100] | 92% | 142% | 79% | 108% | 73% | 72% | 95% | 88% | 95% | 97% | – | – | – | – | – | – | – | – | – | –
2 | HRRIKAWLKKIKALARQLGVAA (Mammalian) [MMI-0500] | – | – | – | – | – | – | – | – | – | – | 80% | 177% | 1% | 20% | 2% | 7% | 8% | 126% | -3% | 3%
3 | YARAAARQARAKALNRQLGVA (Mammalian) [MMI-0200] | – | – | – | – | – | – | – | – | – | – | 100% | 164% | 58% | 93% | 82% | 74% | 94% | 153% | 58% | 81%
